{
  "source": "the RNAGym collection of RNA variant scans (doi:10.7554/elife.80360)",
  "parents": {"B1": {"name": "HDV Ribozyme (parent)", "chain": "GGCCGGCAUGGUCCCAGCCUCCUCGCUGGCGCCGGCUGGGCAACAUUCCGAGGGGACCGUCCCCUCGGUAAUGGCGAAUGGGACCCA"}},
  "data": [
    {"variants_of": "B1", "experiment": "self-cleavage, relative activity (ratio to wild type); higher = more cleavage; co-transcriptional", "values": [
      {"variant": "C22U U65G", "self-cleavage": 0.845},
      {"variant": "C22U U65A", "self-cleavage": 0.831},
      {"variant": "C22U C85U", "self-cleavage": 0.577},
      {"variant": "C22U C58G", "self-cleavage": 0.511},
      {"variant": "C22U G38A", "self-cleavage": 0.931},
      {"variant": "C22U G38C", "self-cleavage": 0.122},
      {"variant": "C22G G74A", "self-cleavage": 0.0241},
      {"variant": "C22G G74U", "self-cleavage": 0.0841},
      {"variant": "C22G G74C", "self-cleavage": 0},
      {"variant": "C22U", "self-cleavage": 0.736},
      {"variant": "C22G C57A", "self-cleavage": 0.0652},
      {"variant": "C22G C57U", "self-cleavage": 0.089},
      {"variant": "C22G C57G", "self-cleavage": 0.219},
      {"variant": "C22U G59U", "self-cleavage": 0.858},
      {"variant": "C22U G59A", "self-cleavage": 0.675},
      {"variant": "C22G C41U", "self-cleavage": 0.0656},
      {"variant": "C22G G38C", "self-cleavage": 0.391},
      {"variant": "C22G G38A", "self-cleavage": 0.0231},
      {"variant": "C22U C30G", "self-cleavage": 0.126},
      {"variant": "C22U C32G", "self-cleavage": 0.0941},
      {"variant": "U23A A42G", "self-cleavage": 0.499},
      {"variant": "C22U C86A", "self-cleavage": 0.779},
      {"variant": "C22G G28C", "self-cleavage": 0},
      {"variant": "C22G U69G", "self-cleavage": 0.108},
      {"variant": "C22U A71U", "self-cleavage": 0.587},
      {"variant": "C22U A71G", "self-cleavage": 0.506},
      {"variant": "C22G G67C", "self-cleavage": 0.132},
      {"variant": "C22U U47A", "self-cleavage": 0.584},
      {"variant": "C22U U47C", "self-cleavage": 0.424},
      {"variant": "C22U G54C", "self-cleavage": 0.641},
      {"variant": "C22U G54A", "self-cleavage": 0.709},
      {"variant": "C22G C75U", "self-cleavage": 0.16},
      {"variant": "C22U C63A", "self-cleavage": 0.697},
      {"variant": "C22G U23C", "self-cleavage": 0},
      {"variant": "C22G G54A", "self-cleavage": 0.101},
      {"variant": "C22G G54C", "self-cleavage": 0.0277},
      {"variant": "C22U A70G", "self-cleavage": 0.577},
      {"variant": "C22U A70U", "self-cleavage": 0.587},
      {"variant": "C22U A78U", "self-cleavage": 0.197},
      {"variant": "C22U C84U", "self-cleavage": 0.29},
      {"variant": "C22G C32U", "self-cleavage": 0.0707},
      {"variant": "C22G C32G", "self-cleavage": 0},
      {"variant": "C22G C32A", "self-cleavage": 0},
      {"variant": "C22U A83U", "self-cleavage": 0.199},
      {"variant": "C22U A83G", "self-cleavage": 0.12},
      {"variant": "C22G C61G", "self-cleavage": 0.104},
      {"variant": "C22G C61U", "self-cleavage": 0.0723},
      {"variant": "C22G G81U", "self-cleavage": 0.089},
      {"variant": "C22G G81C", "self-cleavage": 0},
      {"variant": "C22G U27C", "self-cleavage": 0},
      {"variant": "C22U U27G", "self-cleavage": 0.554},
      {"variant": "U23A A51C", "self-cleavage": 0.731},
      {"variant": "C22G U72A", "self-cleavage": 0.196},
      {"variant": "C22G U72G", "self-cleavage": 0.0554},
      {"variant": "C22G U47C", "self-cleavage": 0.18},
      {"variant": "C22G U47A", "self-cleavage": 0.122},
      {"variant": "C22G G31U", "self-cleavage": 0.0361},
      {"variant": "C22U A56C", "self-cleavage": 0.525},
      {"variant": "C22U A56U", "self-cleavage": 0.776},
      {"variant": "C22U U69G", "self-cleavage": 0.759},
      {"variant": "C22U U69C", "self-cleavage": 0.914},
      {"variant": "C22U U69A", "self-cleavage": 0.554},
      {"variant": "C22G G29U", "self-cleavage": 0.217},
      {"variant": "C22U C57U", "self-cleavage": 0.817},
      {"variant": "C22G C49A", "self-cleavage": 0.131},
      {"variant": "C22U G68C", "self-cleavage": 0.345},
      {"variant": "C22U G68U", "self-cleavage": 0.572},
      {"variant": "C22U G39A", "self-cleavage": 0.185},
      {"variant": "C22U C48A", "self-cleavage": 0.815},
      {"variant": "C22U A87C", "self-cleavage": 0.665},
      {"variant": "C22U A87G", "self-cleavage": 0.737},
      {"variant": "C22G U46C", "self-cleavage": 0.116},
      {"variant": "C22U C66A", "self-cleavage": 0.758},
      {"variant": "C22U U37G", "self-cleavage": 0.101},
      {"variant": "C22U U37A", "self-cleavage": 0.166},
      {"variant": "C22G C66G", "self-cleavage": 0.0845},
      {"variant": "C22G G55U", "self-cleavage": 0.0382},
      {"variant": "C22G G55A", "self-cleavage": 0.0723},
      {"variant": "C22G C58U", "self-cleavage": 0.172},
      {"variant": "C22G C58G", "self-cleavage": 0},
      {"variant": "C22G C58A", "self-cleavage": 0},
      {"variant": "C22U G74A", "self-cleavage": 0.113},
      {"variant": "C22U C36G", "self-cleavage": 0.162}
    ]}
  ]
}
